Laboratory results as given in US20090118184A1 (UNIVERSITY OF ROCHESTER, published 2009).
Where a chain is given by its changes, count along the chain named.

Tests used:
Test in all cases: cell-based or functional assay
[1] = biological target: T1, factor VIIIa A1/A3C1C2 dimer, wild type (human, UniProt P00451 20-391; P00451 1709-2351)
T1 sequence 1: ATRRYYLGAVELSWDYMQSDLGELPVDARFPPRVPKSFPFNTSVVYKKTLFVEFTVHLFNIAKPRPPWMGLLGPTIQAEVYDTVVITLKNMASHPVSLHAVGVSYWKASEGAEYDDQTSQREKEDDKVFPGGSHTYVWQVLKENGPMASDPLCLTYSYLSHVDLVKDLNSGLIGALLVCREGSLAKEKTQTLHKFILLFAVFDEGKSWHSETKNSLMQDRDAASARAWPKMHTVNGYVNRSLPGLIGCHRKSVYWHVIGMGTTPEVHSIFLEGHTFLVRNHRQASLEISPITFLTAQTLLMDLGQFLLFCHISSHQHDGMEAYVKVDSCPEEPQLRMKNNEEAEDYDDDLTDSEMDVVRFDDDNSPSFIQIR
T1 sequence 2: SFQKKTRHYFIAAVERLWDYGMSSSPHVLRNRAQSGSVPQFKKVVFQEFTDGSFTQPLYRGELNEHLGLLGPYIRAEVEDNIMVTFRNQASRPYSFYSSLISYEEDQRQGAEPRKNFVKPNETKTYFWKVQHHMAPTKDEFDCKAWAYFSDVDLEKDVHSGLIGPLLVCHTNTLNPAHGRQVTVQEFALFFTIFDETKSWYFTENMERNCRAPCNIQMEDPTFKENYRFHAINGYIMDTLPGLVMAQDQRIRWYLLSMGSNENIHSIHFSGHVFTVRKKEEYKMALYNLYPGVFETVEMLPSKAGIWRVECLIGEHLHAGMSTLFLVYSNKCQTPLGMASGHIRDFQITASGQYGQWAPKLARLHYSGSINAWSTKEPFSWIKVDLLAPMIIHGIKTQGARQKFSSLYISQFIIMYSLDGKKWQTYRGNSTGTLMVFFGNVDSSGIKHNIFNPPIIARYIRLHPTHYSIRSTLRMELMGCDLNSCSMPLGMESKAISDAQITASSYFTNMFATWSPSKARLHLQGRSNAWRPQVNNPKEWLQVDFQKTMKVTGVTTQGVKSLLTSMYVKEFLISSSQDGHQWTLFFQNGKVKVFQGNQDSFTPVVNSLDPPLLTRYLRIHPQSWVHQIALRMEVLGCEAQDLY

[2] = biological target: T2, factor VIIIa A1/A3C1C2 dimer, Glu272Ala (human, UniProt P00451 20-391; P00451 1709-2351)
T2 chain 1: T1 sequence 1 with E272A
T2 chain 2: T1 sequence 2

[3] = biological target: T3, factor VIIIa A1/A3C1C2 dimer, Glu1984Ala (human, UniProt P00451 20-391; P00451 1709-2351)
T3 sequence 1: T1 sequence 1
T3 sequence 2: T1 sequence 2 with E295A

[4] = biological target: T4, factor VIIIa A1/A3C1C2 dimer, Glu272Val (human, UniProt P00451 20-391; P00451 1709-2351)
T4 chain 1: T1 sequence 1 with E272V
T4 chain 2: T1 sequence 2

- Factor VIIIa Decay relative to the WT value, Factor IXa absent [1]: 1 relative to WT
- Factor VIIIa Decay relative to the WT value, Factor IXa present [1]: 1 relative to WT
- Factor VIIIa Decay, Factor IXa absent [1]: 0.0836 min⁻¹
- Factor VIIIa Decay, Factor IXa present [1]: 0.0154 min⁻¹
- Factor VIIIa Decay relative to the WT value, Factor IXa absent [2]: 1.95 relative to WT
- Factor VIIIa Decay relative to the WT value, Factor IXa present [2]: 1.06 relative to WT
- Factor VIIIa Decay, Factor IXa absent [2]: 0.164 min⁻¹
- Factor VIIIa Decay, Factor IXa present [2]: 0.0163 min⁻¹
- Factor VIIIa Decay relative to the WT value, Factor IXa absent [3]: 0.29 relative to WT
- Factor VIIIa Decay relative to the WT value, Factor IXa present [3]: 0.18 relative to WT
- Factor VIIIa Decay, Factor IXa absent [3]: 0.0241 min⁻¹
- Factor VIIIa Decay, Factor IXa present [3]: 0.0027 min⁻¹
- Factor VIIIa Decay relative to the WT value, Factor IXa absent [4]: 2.72 relative to WT
- Factor VIIIa Decay relative to the WT value, Factor IXa present [4]: 1.03 relative to WT
- Factor VIIIa Decay, Factor IXa absent [4]: 0.227 min⁻¹
- Factor VIIIa Decay, Factor IXa present [4]: 0.0159 min⁻¹
B1: factor VIIIa A2 subunit, wild type (other)
chain: SVAKKHPKTWVHYIAAEEEDWDYAPLVLAPDDRSYKSQYLNNGPQRIGRKYKKVRFMAYTDETFKTREAIQHESGILGPLLYGEVGDTLLIIFKNQASRPYNIYPHGITDVRPLYSRRLPKGVKHLKDFPILPGEIFKYKWTVTVEDGPTKSDPRCLTRYYSSFVNMERDLASGLIGPLLICYKESVDQRGNQIMSDKRNVILFSVFDENRSWYLTENIQRFLPNPAGVQLEDPEFQASNIMHSINGYVFDSLQLSVCLHEVAYWYILSIGAQTDFLSVFFSGYTFKHKMVYEDTLTLFPFSGETVFMSMENPGLWILGCHNSDFRNRGMTALLKVSSCDKNTGDYYEDSYEDISAYLLSKNNAIEPR
